Drawing on article PMC4802596, “Using the β-glucosidase catalyzed reaction product glucose to improve the ionic liquid tolerance of β-glucosidases” (Biotechnology for Biofuels, 2016), this text covers Km, kcat and kcat/Km for one substance.

Data set [1] deals with O=[N+]([O-])c1ccc(O[C@@H]2O[C@H](CO)[C@@H](O)[C@H](O)[C@H]2O)cc1. Nature of the data set: purified protein. As to conditions: 50 mM potassium phosphate pH 7.2, 52 °C, 5 min, text b17 prints a different Km than Tables 1-3.
Data set [2] deals with O=[N+]([O-])c1ccc(O[C@@H]2O[C@H](CO)[C@H](O)[C@H](O)[C@H]2O)cc1. The data set is described as follows: purified protein. As to conditions: 50 mM potassium phosphate pH 7.2, 52 °C, 5 min.

Take H0HC94 (Agrobacterium tumefaciens 5A): in data set [1], the Km (commonly the substrate concentration at which the rate is half of its maximum) amounted to 3.09 ± 0.40 mM, the kcat (usually the maximal rate divided by the concentration of active sites) was 278 ± 4 s⁻¹ and the kcat/Km (usually the second-order rate constant that governs catalysis at low substrate concentration) worked out at 89900 M⁻¹ s⁻¹. Further, in data set [2], the Km was determined as 12.93 ± 2.00 mM, the kcat worked out at 215 ± 7 s⁻¹ and the kcat/Km was 16600 M⁻¹ s⁻¹.
